The values below come from article PMC8358021.

The target of assay [1] is AbApeO-AbApeC heterodimer (ketosynthase-chain length factor complex of the aryl polyene biosynthesis gene cluster of Acinetobacter baumannii) (Acinetobacter baumannii). The experiment in a line: ITC; 2.0 mM holo ACP1 or holo ACP2 injected (19 injections of 3 µl) into 0.1 mM AbApeO-AbApeC or AbApeR; 25 °C; 40 mM potassium phosphate pH 7.0; 2 mM 2-mercaptoethanol.
Assay [2] concerns the target AbApeR (FabB-like homodimeric ketosynthase of the A. baumannii APE gene cluster) (Acinetobacter baumannii). The description is as above.

With “holo ACP1 (ApeE), acyl carrier protein 1 of the A. baumannii APE gene cluster (natural protein)”, in assay [1], the Kd was determined as 0.074 µM and the stoichiometry N was 1.63. In assay [2], the Kd is 18 µM and the stoichiometry N was 1.55.
